From patent publication US20160243521A1

Assays:
[1] = biological target: human polyclonal IgG (Gamma-globulin NICHIYAKU, NIHON PHARMACEUTICAL CO., LTD.) (human); assay: column dynamic binding capacity at 5% breakthrough, residence time 3 min (Test example 2); Protein A 35 g/L on cellulose beads made with crosslinking agent EX-314
[2] = biological target: human polyclonal IgG (Gamma-globulin NICHIYAKU, NIHON PHARMACEUTICAL CO., LTD.) (human); assay: column dynamic binding capacity at 5% breakthrough, residence time 3 min (Test example 2); Protein A 35 g/L on cellulose beads made without crosslinking agent in the dispersion

non-orientation-controlled Protein A (from UniProt P38507 37-327) (ligand)
5% DBC at RT of 3 min (g per 1 L of the filling adsorbent) [1]: 65
5% DBC at RT of 3 min (g per 1 L of the filling adsorbent) [2]: 49
